Source: patent US5079230A, “Stable bioactive somatotropins” (Pitman-Moore, Inc., priority 1988, dated 1992)

T1: porcine liver membranes (Sus scrofa, UniProt P19756)
T1 construct: porcine liver membranes; from tissue; host or cells: porcine liver membranes
T1 sequence (P19756 19-638): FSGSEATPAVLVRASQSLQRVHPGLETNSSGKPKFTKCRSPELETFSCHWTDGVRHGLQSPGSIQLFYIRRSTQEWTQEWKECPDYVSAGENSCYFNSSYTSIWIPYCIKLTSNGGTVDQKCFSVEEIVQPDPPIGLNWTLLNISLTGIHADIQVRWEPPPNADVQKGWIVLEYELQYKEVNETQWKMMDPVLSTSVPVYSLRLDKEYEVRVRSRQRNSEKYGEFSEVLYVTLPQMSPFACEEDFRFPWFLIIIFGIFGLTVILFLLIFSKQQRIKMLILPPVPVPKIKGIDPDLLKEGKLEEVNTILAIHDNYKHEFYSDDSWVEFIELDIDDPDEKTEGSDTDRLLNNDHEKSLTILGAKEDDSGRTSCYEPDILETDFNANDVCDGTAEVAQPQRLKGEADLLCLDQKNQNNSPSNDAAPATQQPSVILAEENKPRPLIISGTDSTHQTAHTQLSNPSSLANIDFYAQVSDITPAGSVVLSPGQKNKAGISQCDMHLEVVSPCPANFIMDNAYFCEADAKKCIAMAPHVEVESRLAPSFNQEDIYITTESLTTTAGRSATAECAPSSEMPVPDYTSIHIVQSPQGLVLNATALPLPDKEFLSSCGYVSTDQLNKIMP

T2: pregnant rabbit liver membranes (Oryctolagus cuniculus, UniProt P19941)
T2 construct: pregnant rabbit liver membranes; from tissue; host or cells: liver membranes of pregnant rabbits
T2 sequence (P19941 19-638): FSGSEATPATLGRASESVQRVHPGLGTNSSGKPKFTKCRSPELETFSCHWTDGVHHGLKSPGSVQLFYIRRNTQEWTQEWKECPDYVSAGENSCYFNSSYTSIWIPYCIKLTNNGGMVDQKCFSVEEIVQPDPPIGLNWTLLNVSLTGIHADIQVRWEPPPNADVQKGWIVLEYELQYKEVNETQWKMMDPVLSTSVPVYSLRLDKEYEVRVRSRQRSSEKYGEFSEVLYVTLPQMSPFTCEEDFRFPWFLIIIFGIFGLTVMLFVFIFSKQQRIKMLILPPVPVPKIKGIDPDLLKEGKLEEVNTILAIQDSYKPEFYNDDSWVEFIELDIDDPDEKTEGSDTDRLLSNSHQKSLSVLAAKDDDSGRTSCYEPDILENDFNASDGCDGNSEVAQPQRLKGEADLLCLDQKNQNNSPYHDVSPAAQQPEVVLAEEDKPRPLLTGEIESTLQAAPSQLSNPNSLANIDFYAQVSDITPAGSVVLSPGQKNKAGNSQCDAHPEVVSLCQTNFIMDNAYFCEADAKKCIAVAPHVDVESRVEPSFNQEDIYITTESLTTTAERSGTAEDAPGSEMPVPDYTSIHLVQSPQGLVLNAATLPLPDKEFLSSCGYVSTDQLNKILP

B1: pST Standard: pST standard of the hypox rat assay; footnote mentions pituitary derived pST standard (protein, UniProt P01248 27-216, looked up)
Somatotropin: FPAMPLSSLFANAVLRAQHLHQLAADTYKEFERAYIPEGQRYSIQNAQAAFCFSETIPAPTGKDEAQQRSDVELLRFSLLLIQSWLGPVQFLSRVFTNSLVFGTSDRVYEKLKDLEEGIQALMRELEDGSPRAGQILKQTYDKFDTNLRSDDALLKNYGLLSCFKKDLHKAETYLRVMKCRRFVESSCAF
B2: small-loop derivatized rpST: recombinant porcine somatotropin with small-loop disulfide reduced with 2-mercaptoethanol and sulfhydryls carbamidomethylated with iodoacetamide (Example 1) (protein, UniProt P01248 27-216, looked up)
Somatotropin: B1 Somatotropin
modifications: small-loop cysteines carbamidomethylated
B3: Dialyzed Zn-rpST: dialyzed zinc recombinant porcine somatotropin (protein, UniProt P01248 27-216, looked up)
Somatotropin: B1 Somatotropin
modifications: zinc form
notes: dialyzed zinc recombinant porcine somatotropin
B4: Small-loop derivatized Zn-RpST: zinc form of small-loop derivatized recombinant porcine somatotropin (protein, UniProt P01248 27-216, looked up)
Somatotropin: B1 Somatotropin
modifications: zinc form; small-loop cysteines carbamidomethylated
notes: zinc form of small-loop derivatized recombinant porcine somatotropin
B5: non-derivatized rpST: unmodified recombinant porcine somatotropin produced in E. coli ATCC 53031 (protein, UniProt P01248 27-216, looked up)
Somatotropin: B1 Somatotropin
modifications: E. coli recombinant
B6: Non-derivatized Zn-rpST: zinc form of non-derivatized recombinant porcine somatotropin (protein, UniProt P01248 27-216, looked up)
Somatotropin: B1 Somatotropin
modifications: zinc form
notes: zinc form of non-derivatized recombinant porcine somatotropin

Legend:
[1] = system: hypophysectomized (hypox) rats; assay: body weight gain in hypophysectomized (hypox) rats; format: in vivo, rat; details: for % Weight Gain Mean: hypox rats, 24 ug pST/day for 9 days, weight gain over a 10 day period; for % Relative Bioactivity: relative to the pituitary derived pST standard tested at similar concentration, 24 ug
Protocol: The relative bioactivity and biopotency of non-derivatized rpST and small-loop derivatized rpST prepared according to the method of Example 1 was determined by measuring the body weight gain in hypophysectomized (hypox) rats. Four (4) groups of 10 hypox rats per group received 24 μg pST/day of pST standard, dialyzed Zn-rpST, small-loop derivatized Zn-rpST, or non-derivatized Zn-rpSt for 9 days. Rats were monitored daily and their body weight gains recorded over a 10 day period. The weight gain was measured and the percent relative bioactivity calculated as a percent of standard.

porcine liver membranes = target: T1, porcine liver membranes; assay: binding activity in porcine liver membranes (homologous somatotropin radioreceptor assay); details: relative to unmodified (non-derivatized) rpST = 100%
Protocol: The bioactivity of non-derivatized rpST and small-loop derivatized rpST prepared according to the method of Example 1 was determined using binding activity in porcine liver membranes according to a modification of the method in Haro et al., Homologous Somatotropin Radio Receptor Assay Utilizing Recombinant Bovine Growth Hormone, Mol. Cell Endocrinol., 38:109-116 (1985).

[2] = solution stability, rpST monomer by Superose-12 size-exclusion chromatography; format: physicochemical; details: 8 mg/ml, carbonate buffer pH 9.8 or phosphate buffered saline pH 7.4, 37° C., 0.6-120 days; compared with non-derivatized rpST
Protocol: 8 mg/ml non-derivatized rpST and small-loop derivatized rpST (prepared with IA according to Example 1) solutions containing 0.5% sodium azide were prepared in either 46 mM carbonate buffer (pH 9.8) or phosphate buffered saline (pH 7.4). Aliquots of 1.25 ml were incubated in Eppendorf Microcentrifuge tubes for 0.6, 4.6, 8.8, 22 and 120 days at 37° C.
At the end of each incubation period the aliquots were removed and analyzed for rpST monomer using Superose-12 size-exclusion chromatography with a mobile phase of 46 mM carbonate buffer (pH 9.8).

[3] = stability in the wetted state, rpST monomer recovery; format: physicochemical; details: 5 mg wetted with Tris-HCl pH 7.4 or carbonate buffer pH 9.8, 14 days at 37° C.; compared with non-derivatized rpST
Protocol: Non-derivatized rpST and small-loop derivatized rpST (prepared with IA according to Example 1) containing 5 mg/ml were dialyzed against 0.46 mM carbonate buffer an lyophilized to produce dry rpST samples for further testing. Five mg of dry small-loop derivatized and non-derivatized rpST were wetted with 0.01 ml of 50 mM Tris-HCl, pH 7.4, 0.05% sodium azide or 46 mM carbonate buffer, pH 9.8, 0.05% sodium azide. The paste was allowed to incubate for 14 days at 37° C. At the end of this time, the rpST was diluted to a final concentration of about 1.8 mg/ml in 46 mM carbonate buffer, pH 9.8, sonicated in a Branisonic 220 sonicator for several minutes, and centrifuged at 15,000×G for 5 minutes. The supernatant was analyzed for monomer content by the chromatographic procedure described in Example 6.

[4] = target: T2, pregnant rabbit liver membranes; assay: pST binding assay using pregnant rabbit liver membranes and 125I-labelled rpST; details: calculated from the IC-50 data relative to the standard
Protocol: The bioactivity of non-derivatized rpST and small-loop derivatized rpST prepared according to the method of Example 1 was determined by pST binding assays using pregnant rabbit liver membranes and ^125 I-labelled rpST. A modified version of the assay disclosed in Tsushima et al., Radioreceptor Assay for Growth Hormone, J. Clin. Endocrinol. Metab., 37:334-337 (1973) was used: The rpST sample was incubated at 30° C. for 3.5 hours with 16,000 cpm ^125 I-rpST. The range of concentration used for the displacement curve of the rpST standard and small-loop derivatized rpST was between 0.38-200 ng/ml. Additional information for the pST binding assay are described in Tsushima et al., Radioreceptor Assay for Growth Hormone, J. Clin. Endocrinol. Metab., 37:334-337 (1973).

| Molecule | relative bioactivity ([1]; at equivalent dose when the ST was dissolved in 9.5 high pH buffer) [%] | % Weight Gain Mean [1] [%] | % Relative Bioactivity [1] [%] | activity (porcine liver membranes) [%] | percentage of monomer recovered [2] | recovery of rpST monomer [3] | percent activity [4] |
| --- | --- | --- | --- | --- | --- | --- | --- |
| B1 | 51 | 23.1 | 55 | – | – | – | – |
| B2 | – | 13.5 | – | 125 | higher percentage of monomer recovered | much greater | 181% |
| B3 | – | 14.4 | 62 | – | – | – | – |
| B4 | – | 13.5 | 58 | – | – | – | – |
| B5 | – | 14.4 | – | 100 | – | – | about 75% |
| B6 | – | 17.1 | 74 | – | – | – | – |
